{
  "source": "patent US20230227838A1",
  "about": "“ENHANCED CELL SURVIVAL AGAINST BIOTIC AND ABIOTIC STRESSES THROUGH SALICYLICK ACID-INDUCED NPR1 CONDENSATES” (priority 2020, published 2023)",
  "key": {"Myc-CUL3 [1]": {"biological_target": "T1, Myc-CUL3 (Arabidopsis thaliana, UniProt Q9ZVH4 1-732)", "T1 construct": "also called AtCUL3A (AT1G26830); not shown: N-terminal Myc tag (pEG203)", "T1 sequence (looked up)": "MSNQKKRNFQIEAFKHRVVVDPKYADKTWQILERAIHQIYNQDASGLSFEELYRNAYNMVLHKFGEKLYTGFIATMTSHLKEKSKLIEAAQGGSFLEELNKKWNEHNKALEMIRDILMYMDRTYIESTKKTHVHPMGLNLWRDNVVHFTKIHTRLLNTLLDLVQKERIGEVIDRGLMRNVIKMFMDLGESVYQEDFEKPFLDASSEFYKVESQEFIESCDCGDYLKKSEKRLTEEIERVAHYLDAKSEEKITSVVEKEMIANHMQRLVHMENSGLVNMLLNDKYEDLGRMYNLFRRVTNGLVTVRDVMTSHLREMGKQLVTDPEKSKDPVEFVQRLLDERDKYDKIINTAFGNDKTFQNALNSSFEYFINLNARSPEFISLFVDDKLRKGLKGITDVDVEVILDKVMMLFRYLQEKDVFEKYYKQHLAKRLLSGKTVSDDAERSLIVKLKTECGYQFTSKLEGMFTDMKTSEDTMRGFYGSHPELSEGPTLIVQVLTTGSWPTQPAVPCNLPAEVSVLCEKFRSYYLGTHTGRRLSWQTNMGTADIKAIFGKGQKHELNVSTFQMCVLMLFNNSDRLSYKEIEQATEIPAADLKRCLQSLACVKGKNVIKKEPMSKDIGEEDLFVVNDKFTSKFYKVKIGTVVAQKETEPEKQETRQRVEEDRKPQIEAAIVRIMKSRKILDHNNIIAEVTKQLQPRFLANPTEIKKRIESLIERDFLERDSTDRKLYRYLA", "test": "co-IP, co-expression in N. benthamiana, 1 mM SA"}, "Myc-CUL3 [2]": {"biological_target": "T1, Myc-CUL3", "test": "co-IP, N. benthamiana, 1 mM SA 5 hr"}, "Myc-CUL3 [3]": {"biological_target": "T1, Myc-CUL3", "test": "pull-down, N. benthamiana, SA dose response"}},
  "data": [
    {"binder": "NPR1-HA (other, Full-length wild-type NPR1, transiently expressed in N. benthamiana; also called HA-fused NPR1; WT NPR1; not shown: C-terminal HA tag (pLN462)) MDTTIDGFADSYEISSTSFVATDNTDSSIVYLAAEQVLTGPDVSALQLLSNSFESVFDSPDDFYSDAKLVLSDGREVSFHRCVLSARSSFFKSALAAAKKEKDSNNTAAVKLELKEIAKDYEVGFDSVVTVLAYVYSSRVRPPPKGVSECADENCCHVACRPAVDFMLEVLYLAFIFKIPELITLYQRHLLDVVDKVVIEDTLVILKLANICGKACMKLLDRCKEIIVKSNVDMVSLEKSLPEELVKEIIDRRKELGLEVPKVKKHVSNVHKALDSDDIELVKLLLKEDHTNLDDACALHFAVAYCNVKTATDLLKLDLADVNHRNPRGYTVLHVAAMRKEPQLILSLLEKGASASEATLEGRTALMIAKQATMAVECNNIPEQCKHSLKGRLCVEILEQEDKREQIPRDVPPSFAVAADELKMTLLDLENRVALAQRLFPTEAQAAMEIAEMKGTCEFIVTSLEPDRLTGTKRTSPGVKIAPFRILEEHQSRLKALSKTVELGKRFFPRCSAVLDQIMNCEDLTQLACGEDDTAEKRLQKKQRYMEIQETLKKAFSEDNLELGNSSLTDSTSSTSKSTGGKRSNRKLSHRRR", "values": [
      {"measurement": "binding result", "setting": "Myc-CUL3 [1]", "result": "binds"}
    ]},
    {"binder": "rdr2-HA (other, not shown: C-terminal HA tag (pLN462)) MDTTIDGFADSYEISSTSFVATDNTDSSIVYLAAEQVLTGPDVSALQLLSNSFESVFDSPDDFYSDAKLVLSDGREVSFHRCVLSARSSFFKSALAAAKKEKDSNNTAAVKLELKEIAKDYEVGFDSVVTVLAYVYSSRVRPPPKGVSECADENCCHVACRPAVDFMLEVLYLAFIFKIPELITLYQRHLLDVVDKVVIEDTLVILKLANICGKACMKLLDRCKEIIVKSNVDMVSLEKSLPEELVKEIIDRRKELGLEVPKVKKHVSNVHKALDSDDIELVKLLLKEDHTNLDDACALHFAVAYCNVKTATDLLKLDLADVNHRNPRGYTVLHVAAMRKEPQLILSLLEKGASASEATLEGRTALMIAKQATMAVEANNIPEQAKHSLKGRLAVEILEQEDKREQIPRDVPPSFAVAADELKMTLLDLENRVALAQRLFPTEAQAAMEIAEMKGTCEFIVTSLEPDRLTGTKRTSPGVKIAPFRILEEHQSRLKALSKTVELGKRFFPRCSAVLDQIMNCEDLTQLACGEDDTAEKRLQKKQRYMEIQETLKKAFSEDNLELGNSSLTDSTSSTSKSTGGKRSNRKLSHRRR", "values": [
      {"measurement": "binding result", "setting": "Myc-CUL3 [2]", "result": "binds"}
    ]},
    {"binder": "sim3-HA (other, SUMOylation-deficient mutant of NPR1; also called npr1sim3; HA-fused sim3; not shown: C-terminal HA tag (pLN462)) MDTTIDGFADSYEISSTSFVATDNTDSSIVYLAAEQVLTGPDVSALQLLSNSFESVFDSPDDFYSDAKLVLSDGREVSFHRCVLSARSSFFKSALAAAKKEKDSNNTAAVKLELKEIAKDYEVGFDSVVTVLAYVYSSRVRPPPKGVSECADENCCHVACRPAVDFMLEVLYLAFIFKIPELITLYQRHLLDVVDKVVIEDTLVILKLANICGKACMKLLDRCKEIIVKSNVDMVSLEKSLPEELVKEIIDRRKELGLEVPKVKKHVSNVHKALDSDDIELVKLLLKEDHTNLDDACALHFAVAYCNVKTATDLLKLDLADVNHRNPRGYTVLHVAAMRKEPQLAASALEKGASASEATLEGRTALMIAKQATMAVECNNIPEQCKHSLKGRLCVEILEQEDKREQIPRDVPPSFAVAADELKMTLLDLENRVALAQRLFPTEAQAAMEIAEMKGTCEFIVTSLEPDRLTGTKRTSPGVKIAPFRILEEHQSRLKALSKTVELGKRFFPRCSAVLDQIMNCEDLTQLACGEDDTAEKRLQKKQRYMEIQETLKKAFSEDNLELGNSSLTDSTSSTSKSTGGKRSNRKLSHRRR", "values": [
      {"measurement": "binding result", "setting": "Myc-CUL3 [3]", "result": "binds"}
    ]}
  ]
}
